Laboratory results taken from paper PMC9167512, “Intradiol ring cleavage dioxygenases from herbivorous spider mites as a new detoxification enzyme family in animals” (BMC Biology, 2022).

Experiments:
Test in all cases: purified protein
Details in all cases: 0.1 M PBS pH 7.5, 25 °C, O2 co-substrate (air), Fe enzyme, kcat corrected for iron content
Oc1ccc(Cl)cc1O = system: Oc1ccc(Cl)cc1O
purified protein [1] = substrate: Oc1ccccc1O
purified protein [2] = substrate: Cc1ccc(O)c(O)c1; assay type: biochemical, Tetranychus urticae

Molecule	Km (Oc1ccc(Cl)cc1O)	Vmax (Oc1ccc(Cl)cc1O)	kcat (Oc1ccc(Cl)cc1O)	kcat/Km (Oc1ccc(Cl)cc1O)	Km (purified protein [1])	Vmax (purified protein [1])	kcat (purified protein [1])	kcat/Km (purified protein [1])	Km (purified protein [2])	Vmax (purified protein [2])	kcat (purified protein [2])	kcat/Km (purified protein [2])
TuDOG7 (Tetranychus urticae)	115.2 ± 35.7 µM	0.96 µM/min	0.051 ± 0.0122 s⁻¹	450 ± 350 M⁻¹ s⁻¹	–	–	–	–	–	–	–	–
TuDOG1 (Tetranychus urticae)	21.2 ± 7.4 µM	0.08 µM/min	0.0216 ± 0.0027 s⁻¹	1020 ± 367 M⁻¹ s⁻¹	–	–	–	–	–	–	–	–
TuDOG11 (Tetranychus urticae)	25.2 ± 4.6 µM	0.09 µM/min	0.00858 ± 0.00095 s⁻¹	333 ± 200 M⁻¹ s⁻¹	–	–	–	–	–	–	–	–
TuDOG16 (Tetranychus urticae)	154.3 ± 20.9 µM	0.31 µM/min	0.0416 ± 0.00135 s⁻¹	267 ± 66.7 M⁻¹ s⁻¹	–	–	–	–	–	–	–	–
TuDOG15 (Tetranychus urticae)	72.0 ± 21.3 µM	0.62 µM/min	0.0915 ± 0.0133 s⁻¹	1270 ± 617 M⁻¹ s⁻¹	–	–	–	–	–	–	–	–
TuDOG1 (Tetranychus urticae) (protein, signal peptide removed, N-terminal 6xHis kept, pJExpress 411, E. coli BL21(DE3), codon optimized (ATUM), 25-37 kDa) DVHRRGKFLPHDRTVINCASLNRKAHQHSSVLAPFTTEGPFFLPDDLKRSDITDGQKGIPLELTIKLTNAKDCTPISNFFIHAWQTNATGVYSGIDEDTAPLSGFRPTPVNRDRSLRGYQETDANGEVKFLTILPGWYSGRAIHIHIEVYAKDITDENKITYIGQFYFEHDFPLKLRKIYPYSTNTQRIIFNEQDYYYVHDHGDETTLDLKHNGAKFSSYATVAIDPTVTVHVQ	–	–	–	–	15.2 ± 4.5 µM	0.14 µM/min	0.0378 ± 0.0027 s⁻¹	2480 ± 600 M⁻¹ s⁻¹	15.1 ± 2.7 µM	0.12 µM/min	0.0324 ± 0.0027 s⁻¹	2150 ± 1000 M⁻¹ s⁻¹
TuDOG7 (Tetranychus urticae) (protein) ERSIEILNHDATVIDCARYKREANQHKCVITPFTTEGPYFLPDDYERSDITDGYTGVNLNLTLLLTNAKDCSPLSNYYVHIWNANAMGHYSGVKEFNFFDHPTFRPKPINNLRFLRGYQITNEDGLVNFNTIIPGWYFGRCIHIHVEIYDKNTTDGHAVSYIGQLYFNREMPAALKLIDPYSQNNNELTLNDQDIVFALSRGSDTILELIPEGNGYSASYVLSIDPTVKVENSVLPFEDPRNVSFIEH	–	–	–	–	74.9 ± 30.9 µM	0.42 µM/min	0.0223 ± 0.00318 s⁻¹	300 ± 100 M⁻¹ s⁻¹	62.2 ± 42.3 µM	0.53 µM/min	0.0282 ± 0.0122 s⁻¹	450 ± 283 M⁻¹ s⁻¹
TuDOG16 (Tetranychus urticae) (protein, signal peptide removed, N-terminal 6xHis kept, pJExpress 411, E. coli BL21(DE3), codon optimized (ATUM), 25-37 kDa) HSERPGKFLEHDRSIVNCARYKREANQHTCVLAPFATEGPYFLADDLERSDITDGQTGVNLDLNLKLTNAKDCSPLSGYFVHIWNANALGHYSGVQEFNKFPKQTFRPKPIYDTRWLRGYQVTNEDGEVNFKTIVPGWYYGRCLHIHVEVYSKNTTDTNAITYIGQLYFKRELPVQLKLVEPYSSNQNELKFNEQDKVFNGMHGNDTITELVFEENNAKTSFILALDPTVTTLTNGTVVN	–	–	–	–	51.0 ± 23.4 µM	0.06 µM/min	0.00805 ± 0.00135 s⁻¹	150 ± 50 M⁻¹ s⁻¹	52.4 ± 19.6 µM	0.14 µM/min	0.0188 ± 0.00268 s⁻¹	367 ± 133 M⁻¹ s⁻¹
TuDOG11 (Tetranychus urticae) (protein, signal peptide removed, N-terminal 6xHis kept, pJExpress 411, E. coli BL21(DE3), codon optimized (ATUM), 25-37 kDa) HLQRPGKFLPHDRSIVDCARYKREANQHTCVLAPFTTEGPYFLPDDLERSDITDGQTGVNLDLNLKLTNAKDCSPLSNYFVHVWQANALGHYSGVNELFPVGFRPKPISGERFLRGYQKTNEDGEVNFKTIIPGWYVGRCIHIHVEVYAKNNTDGNAVNYIGQLYFERDIPSSLRLVEPYSTNVNEITLNDSDGVYLLTHGNDTLIDLVPQESGFRTDYIVAIDPDVSIKYDWLDI	–	–	–	–	64.9 ± 24.3 µM	0.56 µM/min	0.0534 ± 0.00382 s⁻¹	817 ± 150 M⁻¹ s⁻¹	153.9 ± 24.6 µM	0.58 µM/min	0.0553 ± 0.00382 s⁻¹	367 ± 150 M⁻¹ s⁻¹
TuDOG15 (Tetranychus urticae) (protein) DHERPGKYLEHDSTVINCARYKREANQHSCVLAPYAVEGPYFLPDDLERSNLAEDKVGVSLDLAIRLVNSNDCTPLTNMFVHVWHADALGVYSGVPDLAELFVERMRQENKTLPPFWGPEGAYEGRRPGGPGGPGGPGGPGGPGDMEMPGRPTPVNNERFLRGYQVTNEAGEVNFKTIIPGWYTGRSLHIHVEVYSKNTTEPGEVNYIGQIFFKDDLPAELKLIEPYSLNQNILVLNPQDGIYNFAHGEQTKIQLENRETGYFGSMTFGINPNAH	–	–	–	–	91.0 ± 21.2 µM	0.09 µM/min	0.0133 ± 0.00148 s⁻¹	150 ± 66.7 M⁻¹ s⁻¹	117.4 ± 46.5 µM	1.77 µM/min	0.261 ± 0.0546 s⁻¹	2230 ± 1170 M⁻¹ s⁻¹
